Test results as given in FireProtDB (doi:10.1021/acs.biochem.7b00571).

B1: Salicylic acid-binding protein 2, Q6RYA0 (parent)
chain: MKEGKHFVLVHGACHGGWSWYKLKPLLEAAGHKVTALDLAASGTDLRKIEELRTLYDYTLPLMELMESLSADEKVILVGHSLGGMNLGLAMEKYPQKIYAAVFLAAFMPDSVHNSSFVLEQYNERTPAENWLDTQFLPYGSPEEPLTSMFFGPKFLAHKLYQLCSPEDLALASSLVRPSSLFMEDLSKAKYFTDERFGSVKRVYIVCTEDKGIPEEFQRWQIDNIGVTEAIEIKGADHMAMLCEPQKLCASLLEIAHKYN

Variants of: B1
Settings: Nicotiana tabacum; pH 7.2; 4 °C; Urea; Fluorescence; BES; reversible: yes; structure 1Y7I; whole UniProt chain shown

Variant	denaturant midpoint (higher = more stable) [M]
MKEGKHFVLVHGACHGGWSWYKLKPLLEAAGHKVTALDLAASGTDLRKIEELRTLYDYTLPLMELMESLSADEKVILVGHSLGGMNLGLAMEKYPQKIYAAVFLAAFMPDSVHNSSFVLEQYNERTPAENWLDTQFLPYGSPEEPLTSMFFGPKFLAHKLYQLCSPEDLALASSLVRPSSLFMEDLSKAKYFTDERFGSVKRVYIVCTEDKGIPEEFQRWQIDNIGVTEAIEIKGADHMAMLSEPQKLCASLLEIAHKYN [C243S]	2.1
MKEGKHFVLVHGACHGGWSWYKLKPLLEAAGHKVTALDLAASGTDLRKIEELRTLYDYTLPLMELMESLSADEKVILVGHSLGGMNLGLAMEKYPQKIYAAVFLAAFMPDSVHNSSFVLEQYNERTPAENWLDTQFLPYGSPEEPLTSMFFGPKFLAHKLYQLCSPEDLALASSLVRPSSLFMEDLSKAKYFTDERFGSVKRVYIVCTEDKGIPPEFQRWQIDNIGVTEAIEIKGADHMAMLCEPQKLCASLLEIAHKYN [E215P]	3.2
MKEGKHFVLVHGACHGGWSWYKLKPLLEAAGHKVTALDLAASGTDLRKIEELRTLYDYTLPLMELMESLSADEKVILVGHSLGGMNLGLAMEKYPQKIYAAVFLAAFMPDSVHNSSFVLEQYNERTPAENWLDTQFLPYGSPEEPLTSMFFGPKFLAHKLYQLCSPEDLALASSLVRPSSLFMEDLSKAKYFTDERFGSVKRVYIVCTEDKGIPEEFQRWQIDNIGPTEAIEIKGADHMAMLCEPQKLCASLLEIAHKYN [V227P]	1.8
MKEGKHFVLVHGACHGGWSWYKLKPLLEAAGHKVTALDLAASGTDLRKIEELRTLYDYTLPLMELMESLSADEKVILVGHSLGGMNLGLAMEKYPQKIYAAVFLAAFMPDSVHNSSFVLEQYNERTPAENWLDTQFLPYGSPEEPLTSMFFGPKFLAHKLYQLCSPEDLALASSLVRPSSLFMEDLSKAKYFTDERFGSVKRVYIVCTEDKGIPEEFQRWQIDNIGVTEAIEIKGADHMAMLCEPQKLCKSLLEIAHKYN [A250K]	2
MKEGKHFVLVHGACHGGWSWYKLKPLLEAAGHKVTALDLAASGTDLRKIEELRTLYDYTLPLMELMESLSADEKVILVGHSLGGMNLGLAMEKYPQKIYAAVFLAAFMPDSVHNSSFVLEQYNERTPAENWLDTQFLPYGSPEEPLTSMFFGPKFLAHKLYQLCSPEDLALASSLVRPSSLFMEDLSKAKYFTDERFGSVKRVYIVCTEDKGIPEEFQRWQIDNIGVTEAIEIKGADHMAMLCEPQELCASLLEIAHKYN [K247E]	1.1
MKEGKHFVLVHGACHGGWSWYKLKPLLEAAGHKVTALDLAASGTDLRKIEELRTLYDYTLPLMELMESLSADEKVILVGHSLGGMNLGLAMEKYPQKIYAAVFLAAFMPDSVHNSSFVLEQYNERTPAENWLDTQFLPYGSPEEPLTSMFFGPKFLAHKLYQLCSPEDLALASSLVRPSSLFMEDLSKAKYFTDERFGSVKRVYIVCTEDKGIPEEFQRWQIDNIGVTEAIEIKGADHMAMLCEPQKLCAVLLEIAHKYN [S251V]	2.2
MKEGKHFVLVHGACHGGWSWYKLKPLLEAAGHKVTALDLAASGTDLRKIEELRTLYDYTLPLMELMESLSADEKVILVGHSLGGMNLGLAMEKYPQKIYAAVFLAAFMPDSVHNSSFVLEQYNERTPAENWLDTQFLPYGSPEEPLTSMFFGPKFLAHKLYQLCSPEDLALASSLVRPSSLFMEDLSKAKYFTDERFGSVKRVYIVCTEDKGIPEEFQRWQIDNTGVTEAIEIKGADHMAMLCEPQKLCASLLEIAHKYN [I225T]	1.5
MKEGKHFVLVHGACHGGWSWYKLKPLLEAAGHKVTALDLAASGTDLRKIEELRTLYDYTLPLMELMESLSADEKVILVGHSLGGMNLGLAMEKYPQKIYAAVFLAAFMPDSVHNSSFVLEQYNERTPAENWLDTQFLPYGSPEEPLTSMFFGPKFLAHKLYQLCSPEDLALASSLVRPSSLFMEDLSKAKYFTDERFGSVKRVYIVCTEDKGIPEEFQRWMIDNIGVTEAIEIKGADHMAMLCEPQKLCASLLEIAHKYN [Q221M]	2.7
MKEGKHFVLVHGACHGGWSWYKLKPLLEAAGHKVTALDLAASGTDLRKIEELRTLYDYTLPLMELMESLSADEKVILVGHSLGGMNLGLAMEKYPQKIYAAVFLAAFMPDSVHNSSFVLEQYNERTPAENWLDTQFLPYGSPEEPLTSMFFGPKFLAHKLYQLCSPEDLALASSLVRPSSLFMEDLSKAKYFTDERFGSVKRVYIVCTEDKGIPEEFQRWQIDNIGVTEAREIKGADHMAMLCEPQKLCASLLEIAHKYN [I231R]	1.9
MKEGKHFVLVHGACHGGWSWYKLKPLLEAAGHKVTALDLAASGTDLRKIEELRTLYDYTLPLMELMESLSADEKVILVGHSLGGMNLGLAMEKYPQKIYAAVFLAAFMPDSVHNSSFVLEQYNERTPAENWLDTQFLPYGSPEEPLTSMFFGPKFLAHKLYQLCSPEDLALASSLVRPSSLFMEDLSKSKYFTDERFGSVKRVYIVCTEDKGIPEEFQRWQIDNIGVTEAIEIKGADHMAMLCEPQKLCASLLEIAHKYN [A189S]	2.5
MKEGKHFVLVHGACHGGWSWYKLKPLLEAAGHKVTALDLAASGTDLRKIEELRTLYDYTLPLMELMESLSADEKVILVGHSLGGMNLGLAMEKYPQKIYAAVFLAAFMPDSVHNSSFVLEQYNERTPAENWLDTQFLPYGSPEEPLTSMFFGPKFLAHKLYQLCSPEDLALASSLVRPSSLFMEDLSKAKYFTDERFGSVKRVYIVCTEDKGIPEEFQRWQIDNIGVTEAIEIKGADHMAMLCKPQKLCASLLEIAHKYN [E244K]	3
MKEGKHFVLVHGACHGGWSWYKLKPLLEAAGHKVTALDLAASGTDLRKIEELRTLYDYTLPLMELMESLSADEKVILVGHSLGGMNLGLAMEKYPQKIYAAVFLAAFMPDSVHNSSFVLEQYNERTPAENWLDTQFLPYGSPEEPLTSMFFGPKFLAHKLYQLCSPEDLALASSLVRPSSLFMEDLSKAKYFTDERFGSVKRVYIVCTEDKGIPEEFQRWQIDNIGVTEVIEIKGADHMAMLCEPQKLCASLLEIAHKYN [A230V]	2.6
MKEGKHFVLVHGACHGGWSWYKLKPLLEAAGHKVTALDLAASGTDLRKIEELRTLYDYTLPLMELMESLSADEKVILVGHSLGGMNLGLAMEKYPQKIYAAVFLAAFMPDSVHNSSFVLEQYNERTPAENWLDTQFLPYGSPEEPLTSMFFGPKFLAHKLYQLCSPEDLALASSLVRPSSLFMEDLSKAKYFTDERYGSVKRVYIVCTEDKGIPEEFQRWQIDNIGVTEAIEIKGADHMAMLCEPQKLCASLLEIAHKYN [F197Y]	2.2
MKEGKHFVLVHGACHGGWSWYKLKPLLEAAGHKVTALDLAASGTDLRKIEELRTLYDYTLPLMELMESLSADEKVILVGHSLGGMNLGLAMEKYPQKIYAAVFLAAFMPDSVHNSSFVLEQYNERTPAENWLDTQFLPYGSPEEPLTSMFFGPKFLAHKLYQLCSPEDLALASSLVRPSSLFMEDLSKAKYFTDERFGSVKRVYIVCTEDKGIPEEFQRWQIDNIPVTEAIEIKGADHMAMLCEPQKLCASLLEIAHKYN [G226P]	1.6
MKEGKHFVLVHGACHGGWSWYKLKPLLEAAGHKVTALDLAASGTDLRKIEELRTLYDYTLPLMELMESLSADEKVILVGHSLGGMNLGLAMEKYPQKIYAAVFLAAFMPDSVHNSSFVLEQYNERTPAENWLDTQFLPYGSPEEPLTSMFFGPKFLAHKLYQLCSPEDLALASSLVRPSSLFMEDLSKAKYFTDERFGSVKRVYIVCTEDKGIPEEFQRWQIDNIGVTEAIEIKGADHMAMLCEPQKLAASLLEIAHKYN [C249A]	2.1
MKEGKHFVLVHGACHGGWSWYKLKPLLEAAGHKVTALDLAASGTDLRKIEELRTLYDYTLPLMELMESLSADEKVILVGHSLGGMNLGLAMEKYPQKIYAAVFLAAFMPDSVHNSSFVLEQYNERTPAENWLDTQFLPYGSPEEPLTSMFFGPKFLAHKLYQLCSPEDLALASSLVRPSSLFMEDLSKAKYFTDERFGSVKRVYIVCTEDKCIPEEFQRWQIDNIGVTEAIEIKGADHMAMLCEPQKLCASLLEIAHKYN [G212C]	3.5
MKEGKHFVLVHGACHGGWSWYKLKPLLEAAGHKVTALDLAASGTDLRKIEELRTLYDYTLPLMELMESLSADEKVILVGHSLGGMNLGLAMEKYPQKIYAAVFLAAFMPDSVHNSSFVLEQYNERTPAENWLDTQFLPYGSPEEPLTSMFFGPKFLAHKLYQLCSPEDLALASSLVRPSSLFMEDLSKAKYFTDERFGSVKRVYIVCTEDKGIPEEFQRWQIDNIGVSEAIEIKGADHMAMLCEPQKLCASLLEIAHKYN [T228S]	1.9
